Assay results from publication PMC7182444 (Science (New York, N.Y.), 2020).

Experiments:
[1] = target: the molecule itself; experiment: SDS-PAGE and SDD-AGE with western blotting
[2] = target: Orb2 filaments purified from adult heads (Drosophila melanogaster (endogenous in …, UniProt Q9VSR3 1-704)); experiment: seeded aggregation

B1: Orb2 (Drosophila CPEB) purified from adult heads (natural protein)
chain: MDSLKLPKANSATSSASGSNSNLSGSTSASASAATSPTSSGTAVGGILSGAPKSPPGLGSSTPISVRFNANEESLDDILQSFHHSKHSPSGGASGGGDASPTSNLLGMKNNGLGLVVGNCDSLSSSPSQPQMHAGSASLFGNDEVSLRNNFMQAGGFFNRKSCGGLPNLNLNKPPQLHQQQHQQQHQQHQQHQQQQQLHQHQQQLSPNLSALHHHHQQQQQLRESGGSHSPSSPGGGGGGSPYNGSQAGCSSGGISPIPPQMGVSPKYRRSISFPIKGNSPTAIYGNMHMDGMGSGHMNIPTLSIGNGGGGGSTGMVSAGATGGGDAPYLGNSYGNMMTSNGQMHHGGGLDNSLCDYMRNMSLGGNGGGDGSNSMSLMQDRMRVMGGPKHLSEADAMAIAASGNDPSVYLNALKMGSPSRLSPHSPHSPIQGGNGGNVGDGTARFSRKVFVGGLPPDIDEDEITTSFRRFGPLVVDWPHKAESKSYFPPKGYAFLLFQDESSVQQLIDSCITDEDKLYLCVSSPTIKDKAVQIRPWRLADADYVLDATMSLDPRKTVFVGGVPRPLKAFELAMIMDRLYGGVCYAGIDTDPELKYPKGAGRVAFSNQQSYIAAISARFVQLQHGDIDKRVEVKPYVLDDQMCDECEGQRCGGKFAPFFCANVTCLQYYCEHCWAVIHSRPGREYHKPLVKEGADRPRAVPFRWC
binding result [1]: binds | binding result [2]: binds
